Patent US20090203610A1, “METHODS OF TREATING OBESITY OR DIABETES USING NT-4/5” (RINAT NEUROSCIENCE CORPORATION, priority 2004, published 2009)

Key:
Format in all cases: in vivo
db/db mice [1] = assay: Dose response of NT-4/5 on body weight and percentage change in body weight of db/db mice (Example 2, Tables 16, 17); design: body weight: unit not given here; settings: for body weight / percentage change in body weight: db/db mice, 12 week, female, mean
Procedure: Db/db mice maintained as described in Example 1 were divided into five groups (groups 1-5). Group 1 (7 mice) were administered with vehicle (PBS). Group 2 (7 mice), group 3 (8 mice), group 4 (8 mice), group 5 (8 mice) were each administered with NT-4/5 at the doses of 2 mg/kg, 5 mg/kg, 10 mg/kg, and 20 mg/kg, respectively. Both the vehicle and NT-4/5 were administered to each group of the mice subcutaneously once daily for five days. One day before beginning the treatment (T0), blood samples were collected from the mice as described previously for the determination of baseline levels of serum biomarkers (glucose, triglyceride, and cholesterol). Similarly, at day 6 (T6), blood samples were collected for the determination of serum biomarker levels. The blood samples were treated in the same manner as described in Example 1.
From two days before the treatment (T-1) to day 6 (T6), individual food intakes of the mice were measured daily. Individual body weights were also measured daily from 6 days before the treatment (T-5) to day 7 (T7).

db/db mice [2] = assay: Triglyceride after two weeks daily s.c. NT-4/5 in db/db mice (Example 2); settings: day 14; 2, 5, 10 or 20 mg/kg s.c. daily for two weeks
Procedure: In another experiment, db/db mice were subcutaneously injected with vehicle (PBS) or NT-4/5 at 2 mg/kg, 5 mg/kg, 10 mg/kg, or 20 mg/kg daily for two weeks.

[3] = system: NONcNZO-10 polygenic obese mice; assay: Food intake in NONcNZO-10 mice (Example 4, Table 20)
Description: Test animals: 40 male NONcNZO-10 polygenic obese mice obtained from Jackson Laboratory at 10 weeks of age weighing in the range of 26-32 g were used in this study.
Administration of NT-4/5: NT-4/5 was produced in E. coli as descried in U.S. Pat. No. 6,184,360. The mice were divided into 6 groups of equivalent body weight and baseline blood glucose distribution (6-7 mice per group). […] A “paired-fed” control group received daily injection of vehicle, but were only fed with the same amount of food the 3 mg/kg group consumed the previous day. On the day when the treatment started (day 1), a baseline blood samples were collected for measuring glucose and triglyceride. Triglyceride level was measured on day 10. At the end of the study (day 12), a terminal blood sample was collected to determine glucose, triglyceride, electrolytes (Na, K, Cl), testoterone, corticosterone, thyroid hormone (total T4) and thyroid stimulating hormone (TSH) levels. Electrolytes, free testosterone, T4 and TSH levels of serum samples were measured by AniLytics (Gaithesburg, M.D) according to the standard protocols employed by the vendor. Other analytes were measured as described above. Body weight, food intake were monitored 5 days per week through out the entire study. Daily water intake was measured from day 5 through day 7.

db/db mice [4] = assay: Body weight after single injection of NT-4/5 or pegylated NT-4/5 in db/db mice (Example 7, Table 21); settings: for Body weight expressed in percentage of baseline value: single 5 mg/kg dose on day 1
Procedure: (§1) Test animals: 30 female db/db mice at 7 weeks of age weighing in the range of 27-34 g were used in this study.
(§2) Administration of NT-4/5 and pegylated NT-4/5: Wild type NT-4/5 was obtained from Genentech Inc. The mice were divided into 5 groups of equivalent body weight distribution (6 mice per group). Each group received on the first day (day 1) of the study one and the only dose of either vehicle, 5 mg/kg of NT-4/5 produced as described above, 5 mg/kg of 2PEG-NT4-G1S, or 5 mg/kg of 1PEG-NT4-G1S. 2PEG-NT4-G1S represents one PEG molecule was conjugated to each NT-4/5 monomer in a NT-4/5 dimer, and 1PEG-NT4-G1S represents one PEG molecule was conjugated to only one monomer of the NT-4/5 dimer. 2PEG-NT4-G1S and 1PEG-NT4-G1S were separated by ion exchange. Four days before starting the treatment (day −4), blood samples were collected from the mice as described previously for the determination of baseline levels of serum glucose. On day 4 after the treatment started, blood samples were collected again to determine serum glucose level. Body weight and food intake were monitored 5 days a week through out the entire study.

db/db mice [5] = assay: Daily food intake after single injection of NT-4/5 or pegylated NT-4/5 in db/db mice (Example 7, Table 22); settings: for Daily food intake: single s.c. injection 5 mg/kg, db/db mice, mean
Procedure: as §1, §2

db/db mice [6] = assay: Non-fasting serum glucose after single injection in db/db mice (Example 7); settings: after 4 days; single subcutaneous injection, 5 mg/kg
Procedure: as §1, §2

lean C57BL/6 mice = assay: Body weight, food intake, nonfasting blood glucose, triglyceride in normal lean C57BL/6 mice (Example 11); settings: for weight loss as compared to the vehicle control group: female C57BL/6 mice, day 2
Procedure: Test animals: Mice with normal diet were used in this study.
Administration of NT-4/5: NT-4/5 was produced as described in U.S. Pat. No. 6,184,360. The mice were divided into 5 groups of equivalent baseline body weight, food intake and nonfasting blood glucose level distribution (8 mice per group). Each group received 4 daily subcutaneous doses of vehicle, 1 mg/kg, 2 mg/kg, 5 mg/kg or 10 mg/kg of NT-4/5, respectively, from day 1 to day 4. Body weight and food intake were monitored on daily basis. The non-fasting blood glucose was measure as previously described once a week (day 1 and day 8).

[7] = single subcutaneous injection, 5 mg/kg, significantly
[8] = lean male mice, 1, 2, 5 and 10 mg/kg s.c. daily, dose dependent

B1: NT-4/5: mature human neurotrophin-4/5 (SEQ ID NO:1), obtained from Genentech or produced in E. coli (protein, listed as Homo sapiens)
chain: GVSETAPASRRGELAVCDAVSGWVTDRRTAVDLRGREVEVLGEVPAAGGSPLRQYFFETRCKADNAEEGGPGAGGGGCRGVDRRHWVSECKAKQSYVRALTADAQGRVGWRWIRIDTACVCTLLSRTGRA
db/db mice [1]; 2, 5, 10 and 20 mg/kg
  body weight as compared to vehicle: significantly decreased body weight
db/db mice [1]; NT-4/5 2 mg/kg, Day 1
  body weight: 39.66
  percentage change in body weight: 101.83%
db/db mice [1]; NT-4/5 2 mg/kg, Day 3
  body weight: 38.96
  percentage change in body weight: 98.27%
db/db mice [1]; NT-4/5 2 mg/kg, Day 5
  body weight: 38.17
  percentage change in body weight: 96.24%
db/db mice [1]; NT-4/5 2 mg/kg, Day 7
  body weight: 37.50
  percentage change in body weight: 94.57%
db/db mice [1]; NT-4/5 2 mg/kg, Day −1
  body weight: 38.94
db/db mice [1]; NT-4/5 5 mg/kg, Day 1
  body weight: 41.03
  percentage change in body weight: 101.51%
db/db mice [1]; NT-4/5 5 mg/kg, Day 3
  body weight: 39.26
  percentage change in body weight: 95.71%
db/db mice [1]; NT-4/5 5 mg/kg, Day 5
  body weight: 38.48
  percentage change in body weight: 93.79%
db/db mice [1]; NT-4/5 5 mg/kg, Day 7
  body weight: 37.00
  percentage change in body weight: 90.15%
db/db mice [1]; NT-4/5 5 mg/kg, Day −1
  body weight: 40.41
db/db mice [1]; NT-4/5 10 mg/kg, Day 1
  body weight: 39.99
  percentage change in body weight: 101.07%
db/db mice [1]; NT-4/5 10 mg/kg, Day 3
  body weight: 38.49
  percentage change in body weight: 96.28%
db/db mice [1]; NT-4/5 10 mg/kg, Day 5
  body weight: 37.35
  percentage change in body weight: 93.43%
db/db mice [1]; NT-4/5 10 mg/kg, Day 7
  body weight: 36.04
  percentage change in body weight: 90.14%
db/db mice [1]; NT-4/5 10 mg/kg, Day −1
  body weight: 39.58
db/db mice [1]; NT-4/5 20 mg/kg, Day 1
  body weight: 40.73
  percentage change in body weight: 100.31%
db/db mice [1]; NT-4/5 20 mg/kg, Day 3
  body weight: 39.10
  percentage change in body weight: 96.01%
db/db mice [1]; NT-4/5 20 mg/kg, Day 5
  body weight: 37.71
  percentage change in body weight: 92.60%
db/db mice [1]; NT-4/5 20 mg/kg, Day 7
  body weight: 36.00
  percentage change in body weight: 88.38%
db/db mice [1]; NT-4/5 20 mg/kg, Day −1
  body weight: 40.60
db/db mice [2]
  triglyceride level as compared to vehicle: Significant reduction
[3]; 3 mg/kg
  food intake: a significant reduction in food intake
[3]; dose dependent manner
  food intake: reduced
db/db mice [4]; Day 1
  Body weight expressed in percentage of baseline value: 100.0 % of baseline
db/db mice [4]; Day 2
  Body weight expressed in percentage of baseline value: 97.7 % of baseline
db/db mice [4]; Day 3
  Body weight expressed in percentage of baseline value: 100.5 % of baseline
db/db mice [4]; Day 4
  Body weight expressed in percentage of baseline value: 101.7 % of baseline
db/db mice [4]; [7]
  body weight growth: reduced the body weight growth
db/db mice [5]; Day 1
  Daily food intake: 6.6 g/day
db/db mice [5]; Day 2
  Daily food intake: 5.2 g/day
db/db mice [5]; Day 3
  Daily food intake: 7.3 g/day
db/db mice [5]; Day 4
  Daily food intake: 6.3 g/day
db/db mice [5]; [7]
  food intake: reduced
db/db mice [6]
  non-fasting serum glucose levels: showed a tendency to reduce
Lean C57BL/6 mice; 5 mg/kg
  weight loss as compared to the vehicle control group: about 8%
Lean C57BL/6 mice; 10 mg/kg
  weight loss as compared to the vehicle control group: about 11%
Lean C57BL/6 mice; [8]
  blood triglyceride: significantly reduced blood triglyceride
  body weight: significantly reduced the body weight
Lean C57BL/6 mice; lean male mice, 1, 5 and 10 mg/kg s.c. daily, dose dependent
  food intake: significantly reduced food intake
Lean C57BL/6 mice; lean male mice, 2, 5 and 10 mg/kg s.c. daily, dose dependent
  nonfasting blood glucose: significantly reduced nonfasting blood glucose
